Data from US20200397886A1.

Assays:
[1] = molecular target: DS-Cav1-foldon-I53-50A (respiratory syncytial virus (RSV)); test: SPR after heat stress of the antigen (70 °C, 1 h); 50 nM DS-Cav1
[2] = molecular target: DS-Cav1-foldon-I53-50 nanostructure (respiratory syncytial virus (RSV)); test: as above

D25 monoclonal antibody was tested, and the binding signal retained after 1 hour at 70 °C [1] was 50% and the binding signal retained after 1 hour at 70 °C [2] was 80%.
